In patent US20230029307A1:

Molecular target: rhVEGF165 (R&D Systems, Cat #293-VE-010) (human) (UniProt P15692)
Assay: cell-based or functional assay

rhVEGF165 (R&D Systems, Cat #293-VE-010) (human), sequence (P15692 other isoform, or with tags, fused parts or gaps limits assumed): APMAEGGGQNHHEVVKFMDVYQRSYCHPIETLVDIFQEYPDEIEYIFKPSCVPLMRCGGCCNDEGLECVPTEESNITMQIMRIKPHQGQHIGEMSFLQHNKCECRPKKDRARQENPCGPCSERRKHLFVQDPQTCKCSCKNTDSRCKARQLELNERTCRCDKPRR

maximal % inhibition of VEGF-stimulated BCEC proliferation: < 80%
Substance: Aflibercept (EYLEA) (from UniProt P17948 129-230; P35968 225-327) (Fc fusion)
